# Measured values reported in patent publication US20040170622A1, “Methods and compositions for modulating XBP-1 activity” (President and Fellows of Harvard College, priority 2002, published 2004).
# T1: IL-6R (Homo sapiens, UniProt P08887)
# T1 sequence (P08887 20-468): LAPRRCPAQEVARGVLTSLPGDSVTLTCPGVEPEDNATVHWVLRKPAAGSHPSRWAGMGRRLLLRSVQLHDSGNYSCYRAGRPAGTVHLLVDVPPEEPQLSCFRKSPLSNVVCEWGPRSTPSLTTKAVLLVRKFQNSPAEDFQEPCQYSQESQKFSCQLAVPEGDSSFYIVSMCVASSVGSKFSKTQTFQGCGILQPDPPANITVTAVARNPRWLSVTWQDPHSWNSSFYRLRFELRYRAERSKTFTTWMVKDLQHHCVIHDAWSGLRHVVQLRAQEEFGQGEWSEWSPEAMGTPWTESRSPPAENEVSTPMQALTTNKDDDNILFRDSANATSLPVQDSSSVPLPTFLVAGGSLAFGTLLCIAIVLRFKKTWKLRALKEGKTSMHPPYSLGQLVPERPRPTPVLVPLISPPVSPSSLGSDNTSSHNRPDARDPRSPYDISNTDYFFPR
# T2: IL-6/IL-6 R complex with gp130 (Homo sapiens, UniProt P08887)
# T2 sequence (P08887 20-468): T1 sequence (P08887 20-468)
# T2 sequence (P40189 23-918 partner): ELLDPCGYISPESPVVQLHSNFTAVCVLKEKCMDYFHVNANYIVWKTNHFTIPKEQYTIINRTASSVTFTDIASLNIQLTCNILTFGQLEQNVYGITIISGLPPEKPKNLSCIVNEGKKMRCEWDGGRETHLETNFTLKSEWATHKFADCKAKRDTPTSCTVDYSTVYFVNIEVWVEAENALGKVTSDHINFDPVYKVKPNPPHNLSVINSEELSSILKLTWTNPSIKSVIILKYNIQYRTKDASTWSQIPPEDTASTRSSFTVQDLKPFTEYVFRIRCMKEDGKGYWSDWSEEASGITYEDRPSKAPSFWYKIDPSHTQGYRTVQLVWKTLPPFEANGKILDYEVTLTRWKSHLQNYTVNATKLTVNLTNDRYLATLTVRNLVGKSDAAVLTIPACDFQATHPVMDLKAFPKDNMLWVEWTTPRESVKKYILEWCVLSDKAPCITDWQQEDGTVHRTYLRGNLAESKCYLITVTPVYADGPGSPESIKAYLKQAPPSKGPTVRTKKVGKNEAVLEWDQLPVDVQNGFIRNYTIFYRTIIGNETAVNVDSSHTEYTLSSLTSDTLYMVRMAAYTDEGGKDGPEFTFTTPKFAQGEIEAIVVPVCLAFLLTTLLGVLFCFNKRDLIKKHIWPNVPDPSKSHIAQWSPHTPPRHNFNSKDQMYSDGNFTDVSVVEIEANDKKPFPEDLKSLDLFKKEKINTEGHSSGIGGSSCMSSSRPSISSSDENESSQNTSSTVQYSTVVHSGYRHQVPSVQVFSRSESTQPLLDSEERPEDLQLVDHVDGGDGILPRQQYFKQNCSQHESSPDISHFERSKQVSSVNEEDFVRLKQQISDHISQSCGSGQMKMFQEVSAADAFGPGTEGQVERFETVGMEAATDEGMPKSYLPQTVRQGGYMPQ
# B1: IL-4: multi-functional cytokine; recombinant IL-4 used at 20 ng/ml (protein, UniProt P05112 25-153, looked up)
# Interleukin-4: HKCDITLQEIIKTLNSLTEQKTLCTELTVTDIFAASKNTTEKETFCRAATVLRQFYSHHEKDTRCLGATAQQFHRHKQLIRFLKRLDRNLWGLAGLNSCPVKEANQSTLENFLERLKTIMREKYSKCSS
# B2: XBP-N136: XBP-1 deletion mutant consisting of the N terminal 136 amino acids of the spliced form (protein, UniProt O35426 1-136, looked up, fragment)
# chain: MVVVAAAPSAATAAPKVLLLSGQPASGGRALPLMVPGPRAAGSEASGTPQARKRQRLTHLSPEEKALRRKLKNRVAAQTARDRKKARMSELEQQVVDLEEENHKLQLENQLLREKTHGLVVENQELRTRLGMDTLD
# modifications: XBP-1s
# notes: XBP-1 deletion mutant consisting of the N terminal 136 amino acids of the spliced form
# B3: XBP-N188: XBP-1 deletion mutant consisting of the N terminal 188 amino acids of the spliced form (protein)
# chain: MVVVAAAPSAATAAPKVLLLSGQPASGGRALPLMVPGPRAAGSEASGTPQARKRQRLTHLSPEEKALRRKLKNRVAAQTARDRKKARMSELEQQVVDLEEENHKLQLENQLLREKTHGLVVENQELRTRLGMDTLDPDEVPEVEAKGSGVRLVAGSAESAAGAGPVVTSPEHLPMDSDTVASSDSESD
# Experiments:
# [1] = target: T1, IL-6R; details: IL-6R alone; read-out: Kd (low affinity); cited from earlier work
# [2] = target: T2, IL-6/IL-6 R complex with gp130; details: IL-6/IL-6R complex on the membrane with gp130; read-out: Kd (high affinity); cited from earlier work
# [3] = tested on: XBP-1 mRNA splicing; assay: XBP-1 mRNA splicing and XBP-1s protein in purified murine B cells (RT-PCR, Western blot); assay type: cell-based; details: for XBP-1 mRNA splicing (RT-PCR): purified murine B cells, 24-72 h
# Description: (§1) Mouse splenocytes or purified B cells (purified mature B cells were isolated from spleen and lymph nodes by magnetic CD43 depletion or B220 magnetic bead selection, Miltenyi Biotech, Auburn Calif.) were plated at 1×10^6 cells/ml in complete media containing RPMI 1640 supplemented with 10% fetal calf serum (FBS)(Hyclone Laboratories), glutamine (2 mM), penicillin (50 units/ml), streptomycin (50 μg/ml), Hepes (100 mM), nonessential amino acids (1×) sodium pyruvate (1 mM) and β-ME (50 μM) and stimulated with anti-CD40(1 μg/ml)(Pharmigen) or LPS (20 μg/ml)(Sigma). Cytokines (R&D Systems, Minneapolis, Minn.) were used at IL-4 (20 ng/ml), IL-2 (20 ng/ml), Il-5 (20 ng/ml), IL-6 (20 ng/ml ), IL-10 (20 ng/ml ) and IL-13 (20 ng/ml). Stimulated B cells were split to a cell concentration of 1×10^6 cells/ml with fresh media every 24 h. The BCL1 (CWS13.20-3B3 ATCC CRL 1699) cell line was cultured in RPMI media supplemented with 10% FBS, gentamicin (20 μg/ml), and β-ME (50 μM). To induce differentiation cells were plated at 2×10^5 cells/ml and treated with recombinant mouse IL-2 and IL-5 (20 ng/ml) (R&D systems).
# Total RNA was isolated using TriZo1 (Gibco-BRL) or Qiashedder/Rneasy RNA purification columns (Quiagen). Northern Blots were performed as described (Rengarajan et al., 2000 Immunity. 12:293-300). […] The following probes were used after ^32P-radiolabeling with the ReadyPrime labeling system (Amersham-Pharmacia): XBP-1 (15-830 of the murine coding region), GRP94 and GRP78 (both a kind gift of R. J. Kaufman Univ. of Michigan (Lee et al., 2002)), Blimp (Nco1-Sca1 fragment), c-myc cDNA and Il-6 cDNA . […]
# The UPR is induced in cells that detect irregular amounts of unfolded or unassembled protein in the lumen of the ER. […] Total RNAs were prepared at the indicated time point and XBP-1 mRNA levels (a) were determined by Northern blot analysis with γ-actin control (b). […] XBP-1s protein levels were also measured by Western blot analysis (d). […] In panel (C) XBP-1s protein levels were measured by Western blot analysis in the cells stimulated as indicated for 72 hours.
# [4] = tested on: XBP-1 mRNA; assay: XBP-1 mRNA induction by cytokines in purified splenic B cells (Northern blot); assay type: cell-based, mouse
# Description: as §1
# Total RNA was isolated using TriZo1 (Gibco-BRL) or Qiashedder/Rneasy RNA purification columns (Quiagen). Northern Blots were performed as described (Rengarajan et al., 2000 Immunity. 12:293-300). Briefly, 7-10 μg RNA were electrophoresed on 1.2% agarose, 6% formaldehyde gels transferred onto Genescreen membrane (NEN) and covalently bound to the membrane using UV Stratalinker (Stratagene). The following probes were used after ^32P-radiolabeling with the ReadyPrime labeling system (Amersham-Pharmacia): XBP-1 (15-830 of the murine coding region), GRP94 and GRP78 (both a kind gift of R. J. Kaufman Univ. of Michigan (Lee et al., 2002)), Blimp (Nco1-Sca1 fragment), c-myc cDNA and Il-6 cDNA . […]
# Since XBP-1 is required for terminal B cell differentiation, it was important to identify the stimuli that regulate XBP-1 gene expression. A plethora of cytokines (IL-2, IL-4, IL-5, IL-6, IL-10, IL-13) has been implicated in plasma cell differentiation both in vitro and in vivo (reviewed in Calame, K. L. (2001 Nat. Inimunol. 2: 1103-1108; Liu, Y. J., and Banchereau, J. (1997). Sem Immunol 9: 235; Zubler, 1997Sem. Hematol 34:13). It was possible that these cytokines effected terminal B cell differentiation by modulating XBP-1 gene expression. Thus, the ability of these cytokines to upregulate XBP-1 mRNA transcripts in B cells was tested. Purified splenic B cells were cultured for 24 h in the presence or absence of various cytokines and XBP-1 expression determined by Northern blot analysis. […] XBP-1 mRNA levels were determined by Northern blot analysis with γ-actin as control. […] XBP-1 mRNA levels were determined as above. […]
# [5] = tested on: spliced XBP-1; assay: Inhibition of transactivation function of spliced XBP-1, luciferase in NIH 3T3 cells; assay type: cell-based; details: NIH 3T3, 200 ng spliced XBP-1, 200 ng mutant
# Description: Versions of XBP-1 with various deletions of the C terminal transcription activating domain (e.g., consisting of the N terminal 225, 188, or 136 amino acids of the spliced form of XBP-1) that expressed high levels of protein by western analysis were created. The proteins were tested for their ability to inhibit the transactivation function of spliced XBP-1. Both the 188 and 136 N terminal mutants were extremely potent inhibitors (effective at a 1:1 ratio) of the spliced XBP-1. NIH 3T3 cells expressing XBP-1uc constructs were transfected with 200 ng of spliced XBP-1, yielding a relative luciferase activity of 44.5. 200 ng of XBP-N188 lowered the luciferase level to 1.8 and 200 ng of XBP-N136 lowered the luciferase activity to 2.2.
# [6] = purified B cells treated with IL-4
molecule,measurement,setting,value
IL-6: multi-functional cytokine; mature human IL-6 is a 185 amino acid polypeptide,Kd,[1],~1 nM
same,Kd,[2],~0.01 nM
lipopolysaccharide [LPS],spliced XBP-1 protein production,[3]; in the absence of other stimuli,competent to produce substantial amounts of spliced XBP-1 protein
same,XBP-1 mRNA splicing (RT-PCR),[3],an additional band of 145 bp corresponding to the spliced form of XBP-1 mRNA
B1,time at which XBP-1 transcript increase is apparent,[4]; [6],≤ 1 h
same,time of peak of XBP-1 transcripts,[4]; [6],around 8 h
same,XBP-1 transcript induction,"[4]; purified splenic B cells, cytokines 20 ng/ml, 24 h",induced a significant amount of XBP-1 ranscript
same,XBP-1 mRNA splicing (RT-PCR),[3],unable to induce splicing
B2,relative luciferase activity,[5],2.2
B3,relative luciferase activity,[5],1.8
